The source of these data is patent publication US20070224188A1.

The target of the test is biotin-labeled soluble FcRn. The experiment in a line: FcRn ELISA pH 6.0. On the technique in general: In an ELISA, binding on a coated surface is turned into a signal by an enzyme label.

As for anti-CD20 IgG1 D376Q (antibody), the FcRn pH6.0 (% of wild type) turned out to be 116.
The substance anti-CD20 IgG1 D376R (antibody) returned a FcRn pH6.0 (% of wild type) of 103.
The figure for anti-CD20 IgG1 D376S (antibody) is 134.
anti-CD20 IgG1 D376T (antibody): the FcRn pH6.0 (% of wild type) amounted to 160.
anti-CD20 IgG1 D376V (antibody) returned a FcRn pH6.0 (% of wild type) of 251.
For anti-CD20 IgG1 D376W (antibody), the FcRn pH6.0 (% of wild type) was 1.
Next, anti-CD20 IgG1 D376Y (antibody): 53; anti-CD20 IgG1 E258D (antibody): 361.
anti-CD20 IgG1 E269N (antibody) registered a FcRn pH6.0 (% of wild type) of 92.
Regarding anti-CD20 IgG1 E269Q (antibody), the FcRn pH6.0 (% of wild type) was 98.
The figure for anti-CD20 IgG1 E272H (antibody) is 157; for anti-CD20 IgG1 E272K (antibody) it is 320.
Substance anti-CD20 IgG1 E272L (antibody) gave a FcRn pH6.0 (% of wild type) of 129.
anti-CD20 IgG1 E272N (antibody) registered a FcRn pH6.0 (% of wild type) of 110.
Turning to anti-CD20 IgG1 E272R (antibody), the FcRn pH6.0 (% of wild type) was determined as 351.
Take anti-CD20 IgG1 E283A (antibody): the FcRn pH6.0 (% of wild type) is 126.
Substance anti-CD20 IgG1 E283D (antibody) returned a FcRn pH6.0 (% of wild type) of 110.
anti-CD20 IgG1 E283F (antibody) came in with a FcRn pH6.0 (% of wild type) of 168.
Next, anti-CD20 IgG1 E283G (antibody): 137; anti-CD20 IgG1 E283H (antibody): 206; anti-CD20 IgG1 E283I (antibody): 143.
Substance anti-CD20 IgG1 E283K (antibody) yielded a FcRn pH6.0 (% of wild type) of 246.
The figure for anti-CD20 IgG1 E283L (antibody) is 126; for anti-CD20 IgG1 E283M (antibody) it is 95.
anti-CD20 IgG1 E283N (antibody) showed a FcRn pH6.0 (% of wild type) of 119.
With anti-CD20 IgG1 E283P (antibody), the FcRn pH6.0 (% of wild type) was found to be 136.
On to anti-CD20 IgG1 E283Q (antibody), for which the FcRn pH6.0 (% of wild type) amounted to 117.
Substance anti-CD20 IgG1 E283R (antibody) yielded a FcRn pH6.0 (% of wild type) of 282.
anti-CD20 IgG1 E283S (antibody) came in with a FcRn pH6.0 (% of wild type) of 143.
Consider anti-CD20 IgG1 E283T (antibody), for which the FcRn pH6.0 (% of wild type) amounted to 143.
Regarding anti-CD20 IgG1 E283W (antibody), the FcRn pH6.0 (% of wild type) stood at 117.
anti-CD20 IgG1 E283Y (antibody) had a FcRn pH6.0 (% of wild type) of 142.
anti-CD20 IgG1 E293S (antibody) had a FcRn pH6.0 (% of wild type) of 101.
In turn, anti-CD20 IgG1 E293V (antibody) showed a FcRn pH6.0 (% of wild type) of 127.
anti-CD20 IgG1 E318N (antibody) displayed a FcRn pH6.0 (% of wild type) of 216.
The figure for anti-CD20 IgG1 E318P (antibody) is 75.
Regarding anti-CD20 IgG1 E318T (antibody), the FcRn pH6.0 (% of wild type) came out at 304.
anti-CD20 IgG1 E318V (antibody) registered a FcRn pH6.0 (% of wild type) of 114.
Substance anti-CD20 IgG1 E380A (antibody) gave a FcRn pH6.0 (% of wild type) of 152.
On to anti-CD20 IgG1 E380D (antibody), for which the FcRn pH6.0 (% of wild type) was 73.
For the substance anti-CD20 IgG1 E380N (antibody), the FcRn pH6.0 (% of wild type) was found to be 142.
Next, anti-CD20 IgG1 E380S (antibody): 230; anti-CD20 IgG1 E380T (antibody): 172.
Substance anti-CD20 IgG1 E382A (antibody) gave a FcRn pH6.0 (% of wild type) of 103.
Substance anti-CD20 IgG1 E382D (antibody) showed a FcRn pH6.0 (% of wild type) of 73.
Next, anti-CD20 IgG1 E382F (antibody): 222; anti-CD20 IgG1 E382H (antibody): 135.
Next, anti-CD20 IgG1 E382I (antibody): 131; anti-CD20 IgG1 E382K (antibody): 153.
As for anti-CD20 IgG1 E382L (antibody), the FcRn pH6.0 (% of wild type) came out at 126.
Substance anti-CD20 IgG1 E382M (antibody) had a FcRn pH6.0 (% of wild type) of 135.
For the substance anti-CD20 IgG1 E382N (antibody), the FcRn pH6.0 (% of wild type) was 137.
Next, anti-CD20 IgG1 E382P (antibody): 122.
Next, anti-CD20 IgG1 E382Q (antibody): 162; anti-CD20 IgG1 E382R (antibody): 165.
In the case of anti-CD20 IgG1 E382S (antibody), the FcRn pH6.0 (% of wild type) amounted to 151.
The figure for anti-CD20 IgG1 E382T (antibody) is 172; for anti-CD20 IgG1 E382V (antibody) it is 173; for anti-CD20 IgG1 E382W (antibody) it is 172.
Next, anti-CD20 IgG1 E382Y (antibody): 188; anti-CD20 IgG1 E430A (antibody): 179.
Substance anti-CD20 IgG1 E430D (antibody) showed a FcRn pH6.0 (% of wild type) of 44.
On to anti-CD20 IgG1 E430F (antibody), for which the FcRn pH6.0 (% of wild type) came out at 218.
The substance anti-CD20 IgG1 E430G (antibody) gave a FcRn pH6.0 (% of wild type) of 131.
Regarding anti-CD20 IgG1 E430H (antibody), the FcRn pH6.0 (% of wild type) was found to be 192.
Substance anti-CD20 IgG1 E430I (antibody) had a FcRn pH6.0 (% of wild type) of 308.
Substance anti-CD20 IgG1 E430K (antibody) came in with a FcRn pH6.0 (% of wild type) of 131.
Next, anti-CD20 IgG1 E430L (antibody): 242.
Next, anti-CD20 IgG1 E430M (antibody): 195; anti-CD20 IgG1 E430N (antibody): 171.
As to anti-CD20 IgG1 E430P (antibody), the FcRn pH6.0 (% of wild type) was 86.
The substance anti-CD20 IgG1 E430Q (antibody) gave a FcRn pH6.0 (% of wild type) of 320.
Consider anti-CD20 IgG1 E430R (antibody), for which the FcRn pH6.0 (% of wild type) was determined as 249.
As to anti-CD20 IgG1 E430S (antibody), the FcRn pH6.0 (% of wild type) was determined as 183.
The figure for anti-CD20 IgG1 E430T (antibody) is 137; for anti-CD20 IgG1 E430V (antibody) it is 281.
With anti-CD20 IgG1 E430W (antibody), the FcRn pH6.0 (% of wild type) is 11.
The substance anti-CD20 IgG1 E430Y (antibody) had a FcRn pH6.0 (% of wild type) of 126.
For the substance anti-CD20 IgG1 F423N (antibody), the FcRn pH6.0 (% of wild type) turned out to be 158.
Next, anti-CD20 IgG1 G236F (antibody): 88.
The figure for anti-CD20 IgG1 G236R (antibody) is 101.
The substance anti-CD20 IgG1 G236Y (antibody) showed a FcRn pH6.0 (% of wild type) of 76.
Substance anti-CD20 IgG1 G237E (antibody) had a FcRn pH6.0 (% of wild type) of 93.
anti-CD20 IgG1 G237K (antibody) showed a FcRn pH6.0 (% of wild type) of 78.
In turn, anti-CD20 IgG1 G237N (antibody) showed a FcRn pH6.0 (% of wild type) of 91.
anti-CD20 IgG1 G237R (antibody) returned a FcRn pH6.0 (% of wild type) of 56.
Consider anti-CD20 IgG1 G316F (antibody), for which the FcRn pH6.0 (% of wild type) worked out at 34.
Turning to anti-CD20 IgG1 G316K (antibody), the FcRn pH6.0 (% of wild type) came to 131.
With anti-CD20 IgG1 G341D (antibody), the FcRn pH6.0 (% of wild type) was 52.
Next, anti-CD20 IgG1 G341E (antibody): 50.
In turn, anti-CD20 IgG1 G341F (antibody) returned a FcRn pH6.0 (% of wild type) of 52.
As to anti-CD20 IgG1 G341H (antibody), the FcRn pH6.0 (% of wild type) is 65.
anti-CD20 IgG1 G341I (antibody): the FcRn pH6.0 (% of wild type) is 36.
anti-CD20 IgG1 G341K (antibody) returned a FcRn pH6.0 (% of wild type) of 67.
anti-CD20 IgG1 G341L (antibody) gave a FcRn pH6.0 (% of wild type) of 54.
Consider anti-CD20 IgG1 G341M (antibody), for which the FcRn pH6.0 (% of wild type) was 79.
As to anti-CD20 IgG1 G341N (antibody), the FcRn pH6.0 (% of wild type) is 53.
With anti-CD20 IgG1 G341P (antibody), the FcRn pH6.0 (% of wild type) came out at 127.
anti-CD20 IgG1 G341Q (antibody): the FcRn pH6.0 (% of wild type) is 72.
As to anti-CD20 IgG1 G341R (antibody), the FcRn pH6.0 (% of wild type) came out at 78.
In turn, anti-CD20 IgG1 G341S (antibody) showed a FcRn pH6.0 (% of wild type) of 55.
Take anti-CD20 IgG1 G341T (antibody): the FcRn pH6.0 (% of wild type) came to 68.
Next, anti-CD20 IgG1 G341V (antibody): 69; anti-CD20 IgG1 G341W (antibody): 76; anti-CD20 IgG1 G341Y (antibody): 54.
The figure for anti-CD20 IgG1 G385E (antibody) is 98.
For the substance anti-CD20 IgG1 G385P (antibody), the FcRn pH6.0 (% of wild type) was 101.
The figure for anti-CD20 IgG1 H268D (antibody) is 68.
In turn, anti-CD20 IgG1 H268E (antibody) gave a FcRn pH6.0 (% of wild type) of 126.
As for anti-CD20 IgG1 H268K (antibody), the FcRn pH6.0 (% of wild type) was 86.
